The record followed here is patent US20050090447A1, “Peptides that promote complement activation” (Baxter International Inc., priority 2003, published 2005).

For one experiment, the target named is T1, C5 (Homo sapiens, UniProt P01031).
T1 construct: purchased Advanced Research Technologies
The experiment in a line: Phage clone binding to biotinylated C5 (neutravidin capture, anti-M13 antibody detection). Conditions: phage clones, FIG. 1. As for the experimental part:
FIG. 1 is a bar graph depicting the binding of peptide #1, peptide #2, and peptide #3 to C5. […] Wild-type M13 phage without a peptide fused to the pill protein was used as a negative control for this assay.
To confirm that Peptides 1, 2, and 3 (Sequence I. D. Nos:1, 2, and 3, respectively) bind C5, the phage clones were tested in a binding assay with increasing amounts of phage incubated with constant biotinylated C5, captured on a neutravidin plate and detected with an anti-phage antibody. Increasing concentrations of each phage clone were incubated for 2 hours with 200 ng of biotinylated C5 in PBS containing 0.5% BSA. The phage bound C5 complex was captured on a neutravidin coated microplate for 20 minutes at room temperature and then washed well. A peroxidase labeled anti-M13 antibody (Pharmacia) was used to detect the amount of phage bound to C5 with OPD substrate.

The test system of experiment [1] is E. coli strain 07:K1:NM (ATCC 23503). In words: Bactericidal assay, complement-mediated killing in pooled human plasma, colony count. It counts as cell-based. The conditions noted are these: 100 uM peptide, one hour 37° C.; plasma alone 71%. How it is done: FIG. 4 is a bar graph depicting bacteriocidal activity of peptides against E. coli O7:K1:NM. Controls were run with plasma alone, complement inactivated (heat inactivated) plasma, and PBS/0.5% BSA.
The ability of Peptides 1- 3 to enhance complement-mediated killing of bacteria was examined. A virulent strain of E. coli that was chosen for the assays. E. coli strain 07:K1:NM (ATCC 23503), a strain less susceptible to complement mediated killing than most strains of E. coli, were grown in LB media to an optical density (OD) at 600 nm between 0.3 to 0.4 at 37° C. The cells were washed and resuspended in PBS containing 0.5% BSA and the concentration of cells determined from the OD at 600 nm. The cells were diluted in PBS/0.5% BSA to a concentration of 2×10^5 cfu/mL and 100 ul of cells were added to 100 ul of pooled human plasma containing 100 uM of peptide. The sample was incubated for one hour at 37° C. 10 ul aliquots were removed before and after the incubation and bacterial survival was examined by the colony count method (counting cells on LB agar before and after incubation). Heat inactivated plasma (56° C., 30 min.), plasma with no peptide, and PBS/0.5% BSA were also incubated with the cells as controls.

For the next experiment, the system named is classical pathway. In words: Classical pathway hemolytic assay, antibody sensitized sheep erythrocytes in pooled human plasma. It counts as cell-based. The conditions noted are these: disulfide bond reduced and cysteines alkylated; data not shown. As for the experimental part:
FIGS. 2A and 2B are bar graphs depicting percent hemolysis above control versus peptide concentration with peptides 1, 2, and 3 for classical pathway activation (FIG. 2A), and alternative pathway activation (FIG. 2B). Percent hemolysis above control is the percent lysis of erythrocytes for each peptide concentration minus the lysis of erythrocytes in the absence of peptide.
Activation of the classical and alternative pathway by the peptides was measured using standard hemolysis assays. For the classical pathway various concentrations of peptide were incubated with 50 ul pooled human plasma (diluted 1:30 with GVB++), 5×10^7 antibody sensitized sheep erythrocyte cells, and GVB++buffer to a final volume of 200 ul. The reaction was incubated at 37° C. for one hour and centrifuged. The percentage of lysis was determined by measuring the optical density of the supernatant at 414 nm. […] Lysis of the erythrocytes was not observed when the peptides were incubated in the absences of a source of complement (plasma). The peptides altered the activity of the complement protein(s) and increased the level of activation of the complement cascade resulting in an increase in hemolysis. Furthermore, when the disulfide bond of peptide 2 was reduced and the cysteines alkylated, enhancement of erythrocyte lysis was reduced (data not shown).

Bridge positions count the residues as written; N and C are the ends. Ends that are not written are not given here.

T1 sequence (P01031 19-1676): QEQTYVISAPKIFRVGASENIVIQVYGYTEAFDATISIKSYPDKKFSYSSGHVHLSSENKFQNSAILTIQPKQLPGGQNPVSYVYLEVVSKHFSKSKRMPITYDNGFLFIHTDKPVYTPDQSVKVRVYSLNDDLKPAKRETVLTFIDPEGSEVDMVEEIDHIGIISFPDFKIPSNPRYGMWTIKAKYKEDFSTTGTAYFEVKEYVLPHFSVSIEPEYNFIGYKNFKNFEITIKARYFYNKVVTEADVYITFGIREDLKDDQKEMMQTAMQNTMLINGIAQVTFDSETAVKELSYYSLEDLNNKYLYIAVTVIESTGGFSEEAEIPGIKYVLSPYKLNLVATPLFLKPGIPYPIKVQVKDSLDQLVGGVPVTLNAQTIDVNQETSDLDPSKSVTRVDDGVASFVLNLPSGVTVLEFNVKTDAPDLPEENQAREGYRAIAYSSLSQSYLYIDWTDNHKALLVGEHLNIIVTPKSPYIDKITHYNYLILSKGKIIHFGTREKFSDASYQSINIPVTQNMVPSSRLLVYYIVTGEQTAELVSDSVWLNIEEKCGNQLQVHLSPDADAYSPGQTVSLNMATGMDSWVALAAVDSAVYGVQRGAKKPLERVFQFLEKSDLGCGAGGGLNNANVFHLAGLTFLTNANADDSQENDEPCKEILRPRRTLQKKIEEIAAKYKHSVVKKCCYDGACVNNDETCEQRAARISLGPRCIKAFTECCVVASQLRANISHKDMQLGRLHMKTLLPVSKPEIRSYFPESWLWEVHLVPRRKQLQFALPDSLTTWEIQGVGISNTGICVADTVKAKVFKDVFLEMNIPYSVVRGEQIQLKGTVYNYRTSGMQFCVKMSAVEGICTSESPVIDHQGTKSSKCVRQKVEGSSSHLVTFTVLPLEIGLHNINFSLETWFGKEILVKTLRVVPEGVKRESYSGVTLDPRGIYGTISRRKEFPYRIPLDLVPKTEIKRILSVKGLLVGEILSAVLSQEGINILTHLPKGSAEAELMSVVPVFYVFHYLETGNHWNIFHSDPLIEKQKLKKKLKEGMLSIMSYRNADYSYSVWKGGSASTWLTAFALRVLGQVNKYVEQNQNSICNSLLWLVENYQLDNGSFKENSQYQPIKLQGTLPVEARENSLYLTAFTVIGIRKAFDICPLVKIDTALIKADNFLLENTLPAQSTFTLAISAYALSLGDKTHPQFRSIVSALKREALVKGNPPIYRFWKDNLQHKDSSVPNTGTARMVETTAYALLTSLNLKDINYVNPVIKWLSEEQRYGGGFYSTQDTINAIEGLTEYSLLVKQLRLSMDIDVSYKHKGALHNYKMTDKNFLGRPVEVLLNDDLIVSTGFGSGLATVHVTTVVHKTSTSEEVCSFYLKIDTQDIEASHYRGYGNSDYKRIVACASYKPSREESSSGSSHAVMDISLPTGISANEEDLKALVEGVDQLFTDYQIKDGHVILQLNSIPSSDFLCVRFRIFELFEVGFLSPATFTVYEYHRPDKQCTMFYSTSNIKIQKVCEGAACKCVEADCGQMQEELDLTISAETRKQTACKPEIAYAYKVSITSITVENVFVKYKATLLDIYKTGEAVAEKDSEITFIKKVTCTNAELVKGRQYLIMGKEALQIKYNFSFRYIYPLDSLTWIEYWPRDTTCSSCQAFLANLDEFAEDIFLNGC

Regarding “CLSAHHHMC (YCLSAHHHMCGGG; disulfide 2-10 (inferred)) [Peptide 1, synthetic form has added N terminal tyrosine and three C terminal glycines]”, in the experiment with C5, the “relative affinity for C5 (rank order)” value is “tightest relative affinity”. Besides, in experiment [1], the bacterial survival amounted to 23%.

“CPGKASPWC (YCPGKASPWCGGG; disulfide 2-10 (inferred)) [Peptide 3, synthetic form has added N terminal tyrosine and three C terminal glycines]”: the “relative affinity for C5 (rank order)” value with C5 is listed as “then Peptide 3”.

“CPSSPPHMC (YCPSSPPHMCGGG; disulfide 2-10 (inferred)) [Peptide 2, synthetic form has added N terminal tyrosine and three C terminal glycines]”: in the experiment with C5, the “relative affinity for C5 (rank order)” value was “followed by Peptide 2”. In the experiment on classical pathway, the “enhancement of erythrocyte lysis” value is “reduced”.
